Kd data for 2 substances are collected here from article PMC6952535.

For this assay, the target named is 6xHis-hSTAT3_(136-705) (human) (UniProt P40763). In words: ITC.
Sequence of UniProt P40763 (P40763 136-705): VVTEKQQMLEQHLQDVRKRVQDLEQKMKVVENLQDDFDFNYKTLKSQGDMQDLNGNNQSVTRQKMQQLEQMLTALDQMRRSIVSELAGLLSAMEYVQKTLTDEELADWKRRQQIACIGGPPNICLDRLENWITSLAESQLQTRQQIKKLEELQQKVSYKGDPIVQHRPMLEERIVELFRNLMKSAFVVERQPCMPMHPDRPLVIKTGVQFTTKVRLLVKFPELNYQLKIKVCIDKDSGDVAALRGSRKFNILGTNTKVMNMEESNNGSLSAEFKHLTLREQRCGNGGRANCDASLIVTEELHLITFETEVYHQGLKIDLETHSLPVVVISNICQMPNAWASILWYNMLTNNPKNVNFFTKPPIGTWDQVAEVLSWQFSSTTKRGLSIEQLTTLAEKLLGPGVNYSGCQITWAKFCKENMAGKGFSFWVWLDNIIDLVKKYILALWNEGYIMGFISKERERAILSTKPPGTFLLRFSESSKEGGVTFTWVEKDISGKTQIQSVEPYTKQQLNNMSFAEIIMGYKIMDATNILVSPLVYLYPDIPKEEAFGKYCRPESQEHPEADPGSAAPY

Broadly, the Kd is a measure of binding affinity in units of concentration. Read a low Kd as a tighter complex. For “SarA phospho-peptide (ten residues spanning the YxxQ motif, phosphorylated at Y167)”, the dissociation constant (Kd) was found to be 143 nM.

As to “gp130 phosphopeptide containing YxxQ (phosphorylated at Y767)”, the equilibrium dissociation constant (Kd) amounted to 2290 nM.
